Results from PMC4989169.

B1: active MASP-3cf (catalytic fragment of active MASP-3 containing the CCP1-CCP2-SP domains) (enzyme)
chain: IIGGRNAEPGLFPWQALIVVEDTSRVPNDKWFGSGALLSASWILTAAHVLRSQRRDTTVIPVSKEHVTVYLGLHDVRDKSGAVNSSAARVVLHPDFNIQNYNHDIALVQLQEPVPLGPHVMPVCLPRLEPEGPAPHMLGLVAGWGISNPNVTVDEIISSGTRTLSDVLQYVKLPVVPHAECKTSYESRSGNYSVTENMFCAGYYEGGKDTCLGDSGGAFVIFDDLSQRWVVQGLVSWGGPEECGSKQVYGVYTKVSNYVDWVWEQMGLPQSVVEPQVER

Columns and labels:
[1] = target: active MASP-3cf (catalytic fragment of active MASP-3 containing the CCP1-CCP2-SP domains) (human) (UniProt P48740); experiment: enzyme inhibition assay (equilibrium KI from residual activity, photometric); Ca2+-free buffer: 20 mM HEPES, 150 mM NaCl, 0.1 mM EDTA, 0.05% Triton-X100, pH 7.4
[2] = target: active MASP-2cf (human); experiment: enzyme inhibition assay (equilibrium KI from residual activity, photometric); enzymes co-incubated with serial dilutions of the inhibitors for 2 h at room temperature; 20 mM HEPES, 145 mM NaCl, 5 mM CaCl2, 0.05% Triton X-100, pH 7.5; Z-Lys-SBzl substrate, read at 410 nm
[3] = target: active MASP-3cf (catalytic fragment of active MASP-3 containing the CCP1-CCP2-SP domains) (human) (UniProt P48740); experiment: as above
[4] = target: TFMI-3_HA (human) (UniProt P10646); experiment: SPR; ProteOn XPR36, GLM chip; TFMI-3_HA captured on immobilised anti-HA antibody (50-80 RU), MASP-3cf injected; 20 mM HEPES, 150 mM NaCl, 5 mM CaCl2, 0.05% Triton X-100, pH 7.4; 1:1 Langmuir model

Molecule	Ki [1] [nM]	Ki [2] [nM]	Ki [3] [nM]	Kd [4] [nM]	koff [4] [s⁻¹]	kon [4] [M⁻¹ s⁻¹]
TFPI-based MASP-3 Inhibitor (TFMI-3) (from UniProt P10646 121-178) (designed binder)	9.9	75000	11.1	–	–	–
B1	–	–	–	17.7	0.00093	52500
